Target: T1, PA-SERCA2b (recombinant SERCA2b with an N-terminal PA-tag) (human, UniProt P16615-1 1-1042)
T1 construct: human SERCA2b; cDNA in the pFastBac1 vector; source: Sf21 cells (baculovirus), solubilised with DDM, purified on anti-PA-tag NZ-1 Sepharose, eluted with PA-tag peptide; not shown: PA-tag, N-terminal, kept
Experiment: pull-down; PA-SERCA2b (50 pmol) incubated with FLAG–TER (125 pmol) immobilised on anti-FLAG mAb resin, or resin alone, 4 °C 2 h; buffer H (50 mM Hepes–NaOH pH 7.0, 100 mM NaCl, 1 mM MgCl2, 5 mM EGTA, 1% DDM, 20% glycerol) with or without 100 nM free Ca2+; CBB staining; also 0.25 uM PA-SERCA2b pretreated with 2.5 uM thapsigargin (less pulled down)
Conditions: both partners purified

T1 sequence (P16615 whole entry): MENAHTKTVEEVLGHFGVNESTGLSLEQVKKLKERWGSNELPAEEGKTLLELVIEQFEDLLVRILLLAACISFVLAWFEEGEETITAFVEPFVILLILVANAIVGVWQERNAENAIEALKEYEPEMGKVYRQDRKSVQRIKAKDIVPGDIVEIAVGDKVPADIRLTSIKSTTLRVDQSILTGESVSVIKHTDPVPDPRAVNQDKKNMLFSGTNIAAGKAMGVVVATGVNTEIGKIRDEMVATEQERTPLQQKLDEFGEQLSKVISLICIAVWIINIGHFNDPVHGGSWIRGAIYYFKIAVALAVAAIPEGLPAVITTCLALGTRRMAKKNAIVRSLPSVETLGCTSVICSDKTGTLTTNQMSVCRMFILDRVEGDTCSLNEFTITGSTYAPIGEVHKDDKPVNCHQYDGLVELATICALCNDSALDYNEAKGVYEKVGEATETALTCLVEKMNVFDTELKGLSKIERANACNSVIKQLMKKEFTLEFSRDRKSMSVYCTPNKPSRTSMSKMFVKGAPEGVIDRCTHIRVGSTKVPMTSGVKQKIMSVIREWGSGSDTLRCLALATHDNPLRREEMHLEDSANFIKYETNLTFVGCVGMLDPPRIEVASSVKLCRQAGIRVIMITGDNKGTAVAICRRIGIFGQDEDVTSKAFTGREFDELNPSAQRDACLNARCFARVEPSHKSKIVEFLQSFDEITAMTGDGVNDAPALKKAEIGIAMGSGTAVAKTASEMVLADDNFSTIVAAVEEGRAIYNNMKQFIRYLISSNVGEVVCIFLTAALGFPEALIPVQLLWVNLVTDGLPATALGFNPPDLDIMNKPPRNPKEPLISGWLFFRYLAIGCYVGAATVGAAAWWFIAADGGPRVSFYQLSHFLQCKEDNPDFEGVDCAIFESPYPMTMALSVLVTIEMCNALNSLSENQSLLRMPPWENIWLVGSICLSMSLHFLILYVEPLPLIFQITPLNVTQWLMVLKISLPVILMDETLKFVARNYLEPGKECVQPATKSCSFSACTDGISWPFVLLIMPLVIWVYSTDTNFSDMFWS

B1: FLAG–TER (recombinant TER with an N-terminal FLAG-tag), from insect cells (enzyme, human, UniProt Q9NZ01 1-308, looked up)
chain: MKHYEVEILDAKTREKLCFLDKVEPHATIAEIKNLFTKTHPQWYPARQSLRLDPKGKSLKDEDVLQKLPVGTTATLYFRDLGAQISWVTVFLTEYAGPLFIYLLFYFRVPFIYGHKYDFTSSRHTVVHLACICHSFHYIKRLLETLFVHRFSHGTMPLRNIFKNCTYYWGFAAWMAYYINHPLYTPPTYGAQQVKLALAIFVICQLGNFSIHMALRDLRPAGSKTRKIPYPTKNPFTWLFLLVSCPNYTYEVGSWIGFAIMTQCLPVALFSLVGFTQMTIWAKGKHRSYLKEFRDYPPLRMPIIPFLL
notes: human trans-2-enoyl-CoA reductase (TER); cDNA in the pFastBacFLAGa vector; not shown: FLAG, N-terminal, kept
  binding result: binds
